Measurements from patent publication US20160310583A1, “TUMOR ANTIGEN PEPTIDE” (Sumitomo Dainippon Pharma Co., Ltd., priority 2013, published 2016).
Where “and” joins values, the source holds several entries; their conditions need not be identical. Identical values can stand only once. Entries after “also recorded” stand apart in the source; their conditions may differ.

Assays:
HLA-A*02:01 = molecular target: T1, HLA-A*02:01 (Homo sapiens, UniProt P04439, D140Y/D185E/D98H/E176V/E277Q/G131W/G231S/I119V/I121R/I166T/I218V/L300P/L318F/N151K/N90K/P208A/P217A/Q86G/Q94H/R138H/R169H/T345S); format: binding
T1 construct: T2 cells can usually only express a low level of empty MHC class I molecules on the cell surface; endogenous in cells; host or cells: T2-A24 cells (human lymphoblastoid T2 cells, TAP-deficient)

[1] = system: HLA-A*02:01 transgenic mouse; experiment: In vivo CTL induction test, IFNγ ELISPOT of spleen cells, HLA-A*02:01 transgenic mouse; conditions: 250 μg/location intradermal with IFA, spleen after one week
Text: (§1) An HLA-A*02:01 transgenic mouse (C57BL/6CrHLA-A2.1DR1) is a mouse that is deficient in mouse MHC and expresses HLA-A*02:01 and HLA-DRB1*01:01, which are human MHCs, and the use of this mouse enables a peptide that can induce CTLs in humans to be selected. Furthermore, an HLA-A*24:02 transgenic mouse is a mouse that expresses HLA-A*24:02, which is a human MHC, and the use of this mouse enables a peptide that can induce CTLs in a human to be selected. Whether or not each peptide has an activity in inducing CTLs was determined by whether or not T cells that can react with the administered peptide are induced by administering the peptide to the mouse.
(§2) Specifically, it was carried as follows. First, the peptide was dissolved in dimethyl sulfoxide at 80 mg/mL, then diluted with water for injection, and mixed with an equal part of incomplete Freund's adjuvant (IFA or ISA51VG), thus forming an emulsion. The peptide thus emulsified was administered to the mouse tail base intradermally at two locations at a dose of 250 μg/location. One week after that, the mouse was euthanized with CO2 gas, the spleen was removed, and spleen cells were prepared. For measurement of IFNγ production, an IFNγ ELISPOT assay kit (Becton, Dickinson and Company) was used. On the day before preparing the spleen cells, an ELISPOT plate was treated with an anti-IFNγ antibody, and on the day it was blocked with 10% FBS-containing RPMI 1640 medium. The spleen cells prepared were plated on the blocked ELISPOT plate at 0.25 to 1.0×10^6 cells/well. The administered FAM83B-derived peptide was dissolved in DMSO at 40 mg/mL and further diluted with 10% RPMI 1640 medium to 20 μg/mL. The diluted peptide was added at 50 μL/well to the spleen cells derived from the animal to which the peptide had been administered. In vitro peptide restimulation was applied by culturing the spleen cells to which the peptide was added under 5% CO2 at 37° C. for 16 to 18 hours. After culturing, the supernatant was removed, and the ELISPOT plate was subjected to color development in accordance with the included protocol. The number of color developed spots was measured by KS-ELISPOT.

HLA-A*24:02 = HLA-A*24:02 (Homo sapiens, UniProt P04439, D101N/D140Y/D185E/E176V/E190D/F33S/G103R/G107R/I119L/I121M/I306V/K335N/L105A/L180Q/L300P/N151K/N90K/Q86E/Q94H/R106L/R138H/R89G/T104I/T345S/V100E/W191G/Y123F); format: binding
[2] = system: HLA-A*24:02 transgenic mouse; experiment: In vivo CTL induction test, IFNγ ELISPOT of spleen cells, HLA-A*24:02 transgenic mouse; conditions: 250 μg/location intradermal with IFA, spleen after one week
Text: as §1, §2

## ALVMDIFTDV [Peptide F151_10]
HLA-A*02:01
  binding to HLA-A02 (in words): capable of binding to HLA-A02
[1]; listed as SEQ ID No: 37
  CTL inducibility (peptide-specific IFNγ production in spleen cells): had CTL inducibility; also recorded: having CTL inducibility

## EADPTGHSY [HLA-A*02:01 Negative control, MAGE-1161-169 peptide as an HLA-A02-negative control, reference compound]
HLA-A*02:01
  HLA-A*02:01 Negative control, MFI as solvent ratio: 1.1 and 1.0

## FLAEEEINYI [Peptide F55_10]
HLA-A*02:01
  binding to HLA-A02 (in words): capable of binding to HLA-A02
[1]
  CTL inducibility (peptide-specific IFNγ production in spleen cells): having CTL inducibility

## FLAEEEINYIL [Peptide F55_11]
HLA-A*02:01
  binding to HLA-A02 (in words): capable of binding to HLA-A02
[1]
  CTL inducibility (peptide-specific IFNγ production in spleen cells): having CTL inducibility

## FLLVDCQKVM [Peptide F231_10]
HLA-A*02:01
  binding to HLA-A02 (in words): capable of binding to HLA-A02
[1]
  CTL inducibility (peptide-specific IFNγ production in spleen cells): having CTL inducibility

## FLVQERVSDFL [Peptide F46_11]
HLA-A*02:01
  Evaluation results HLA-A0201, mean fluorescence intensity (MFI) as solvent ratio: 1.4

## GLLGGTHIDLL [Peptide F114_11]
HLA-A*02:01
  binding to HLA-A02 (in words): capable of binding to HLA-A02
[1]
  CTL inducibility (peptide-specific IFNγ production in spleen cells): having CTL inducibility

## GWPYVMPGLL [Peptide F107_10]
HLA-A*24:02
  binding to HLA-A24 (in words): capable of binding to HLA-A024
[2]; listed as SEQ ID No: 6
  CTL inducibility (peptide-specific IFNγ production in spleen cells): had CTL inducibility; also recorded: having CTL inducibility

## KVMYGSYSYMWSF [Peptide F238_13]
HLA-A*24:02
  binding to HLA-A24 (in words): capable of binding to HLA-A024
[2]
  CTL inducibility (peptide-specific IFNγ production in spleen cells): having CTL inducibility

## LVQERVSDFL [Peptide F47_10]
HLA-A*24:02
  binding to HLA-A24 (in words): capable of binding to HLA-A024
[2]; listed as SEQ ID No: 75
  CTL inducibility (peptide-specific IFNγ production in spleen cells): had CTL inducibility; also recorded: having CTL inducibility

## LYARSCVPSSF [Peptide F276_11]
HLA-A*24:02
  binding to HLA-A24 (in words): capable of binding to HLA-A024
[2]; listed as SEQ ID No: 14
  CTL inducibility (peptide-specific IFNγ production in spleen cells): had CTL inducibility; also recorded: having CTL inducibility

## NYIEPHYKEW [Peptide F18_10]
HLA-A*24:02
  binding to HLA-A24 (in words): capable of binding to HLA-A024
[2]; listed as SEQ ID No: 74
  CTL inducibility (peptide-specific IFNγ production in spleen cells): had CTL inducibility; also recorded: having CTL inducibility

## PFCKIESSI [Peptide F939_9]
HLA-A*24:02
  binding to HLA-A24 (in words): capable of binding to HLA-A024
[2]; listed as SEQ ID No: 23
  CTL inducibility (peptide-specific IFNγ production in spleen cells): had CTL inducibility; also recorded: having CTL inducibility

## PLPESIPKL [Peptide F594_9]
HLA-A*02:01
  Evaluation results HLA-A0201, mean fluorescence intensity (MFI) as solvent ratio: 1.4

## RGYVYQGL [HLA-A*24:02 Negative control, reference compound]
HLA-A*24:02
  HLA-A*24:02 Negative control, MFI as solvent ratio: 1.0 and 1.1

## SYGRSSPLL [Peptide F971_9]
HLA-A*24:02
  binding to HLA-A24 (in words): capable of binding to HLA-A024
[2]; listed as SEQ ID No: 24
  CTL inducibility (peptide-specific IFNγ production in spleen cells): had CTL inducibility; also recorded: having CTL inducibility

## SYMWSFEKAHL [Peptide F245_11]
HLA-A*24:02
  binding to HLA-A24 (in words): capable of binding to HLA-A024
[2]; listed as SEQ ID No: 12
  CTL inducibility (peptide-specific IFNγ production in spleen cells): had CTL inducibility; also recorded: having CTL inducibility

## TYQHSVSSL [Peptide F305_9]
HLA-A*24:02
  binding to HLA-A24 (in words): capable of binding to HLA-A024
[2]; listed as SEQ ID No: 15
  CTL inducibility (peptide-specific IFNγ production in spleen cells): had CTL inducibility; also recorded: having CTL inducibility

## VIALVMDIFT [Peptide F149_10]
HLA-A*24:02
  binding to HLA-A24 (in words): capable of binding to HLA-A024
[2]
  CTL inducibility (peptide-specific IFNγ production in spleen cells): having CTL inducibility

## VMDIFTDVDIF [Peptide F153_11]
HLA-A*24:02
  binding to HLA-A24 (in words): capable of binding to HLA-A024
[2]
  CTL inducibility (peptide-specific IFNγ production in spleen cells): having CTL inducibility

## VMYGSYSYMW [Peptide F239_10]
HLA-A*24:02
  binding to HLA-A24 (in words): capable of binding to HLA-A024
[2]
  CTL inducibility (peptide-specific IFNγ production in spleen cells): having CTL inducibility

## VYILLDESNF [Peptide F176_10]
HLA-A*24:02
  binding to HLA-A24 (in words): capable of binding to HLA-A024
[2]; listed as SEQ ID No: 9
  CTL inducibility (peptide-specific IFNγ production in spleen cells): had CTL inducibility; also recorded: having CTL inducibility
